Assay results reported in the supplement of paper PMC10567573.

B1: PPEF2 (parent)
chain: FIPSSHNDRDFLTRIFTEDRFAQD
B2: ETS2 (parent)
chain: TSGKRYVYRFVCDLQNLLGFTPEE

Variants of: B1
Test: protein stability index of a GFP-peptide fusion (GPS, HEK-293T) (PSI 1-6); higher = more stable
Details: c terminus: a fixed tail appended
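Note: lentivirally expressed fusions sorted by FACS into six bins by GFP to DsRed ratio, PSI derived from sequencing read proportions per bin multiplied by bin number.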

Protein stability index of substitutions, site by site:
A22: E 2.2 | F 2.07 | G 1.89 | H 1.83 | I 1.78 | K 3.16 | L 2 | M 1.8 | N 2.59 | P 1.95 | Q 2.15 | R 2.16 | S 1.63 | T 1.93 | V 2.56 | W 3.33 | Y 1.61
Q23: A 1.96 | C 2.27 | D 1.72 | E 2.06 | F 2.44 | G 1.89 | H 2.18 | I 1.99 | K 2.33 | L 2.06 | M 2.09 | N 2.68 | P 3.1 | R 3.08 | S 2.35 | T 3.01 | V 2.15 | W 2.55 | Y 2.84
D24: A 2.61 | C 1.75 | E 1.95 | F 2.83 | G 2.13 | H 3.06 | I 2.99 | K 1.99 | L 2.2 | M 1.94 | N 1.62 | P 1.73 | Q 1.27 | R 2.19 | S 2.93 | T 1.52 | V 2.79 | W 2.63 | Y 1.9

Variants of: B2
Test: as above
Details: c terminus: a fixed tail appended

Protein stability index of substitutions, site by site:
D13: N 1.77 | S 1.57 | L 2.22 | H 1.79 | R 2.11 | E 2.11 | K 2.48 | I 2.81
N16: P 2.56 | G 2.38 | F 2.16 | S 2.46 | V 3.2 | I 2.03
T21: G 1.95 | C 1.32 | F 2.02 | H 2.75 | I 1.76 | R 1.67 | L 2.1
F10: H 2.04 | D 3.9 | S 3.37 | Q 2.7 | T 2.26
Y6: Q 1.86 | S 2.26 | P 2.59 | V 2.61
V11: M 2.85 | T 2.36 | E 2.61 | C 3.14 | I 2.64
L14: W 2.53 | E 3.19 | R 2.35 | I 2.41
E23: T 2.17 | R 3.3 | Y 2.29
E24: R 1.96 | I 1.75 | W 2.5 | L 1.96
V7: F 2.25 | H 2.04 | S 2.83 | M 3.69 | T 2.57
Q15: F 2.09 | V 2.47 | L 2.44
R5: S 2.87 | K 3.18 | P 1.52 | F 3.19
T1: P 1.94 | K 1.66
Y8: L 1.75 | F 1.55 | P 2.28 | A 2.12 | D 2.78 | C 1.35 | K 2.11 | T 2.29 | N 3.26
S2: R 1.77 | Q 1.85
L18: C 1.39 | N 2.29 | R 2.09 | P 1.68 | Q 2.88
P22: G 1.63 | L 2.85 | F 1.89 | R 3.16
R9: S 1.92 | D 1.66 | Y 1.79 | F 1.06 | N 1.77 | M 3
F20: E 2 | N 3.28 | I 1.61 | R 1.87
K4: V 2 | W 2.72 | T 2.17 | P 1.83
G19: D 1.98 | K 1.36 | F 1.82 | V 2.01 | P 2.07 | S 2.13
L17: A 2.08 | Y 2.37 | R 2.79 | T 2.98 | P 3.57 | I 2.31 | H 2.61
G3: K 1.7 | I 2.11 | N 2.77 | P 1.5 | V 1.86
